The target of assay [1] is Recombinant human IL-17A (human) (UniProt Q16552). Kind of assay: SPR.
For assay [2] the target is unchanged. Description: SPR, IL-17A immobilised, purified Fab injected.
Assay [3] deals with CAT-2200 Fab heavy chain S188K. Kind of assay: LCCA.
Assay [4] has as its target CR8071 lambda light chain L1 with S176K_Y178K. Kind of assay: SMCA System C: four chains co-expressed, protein A, LC-MS.
For assay [5] the target is unchanged. The description is as above. This is another data set of the same source.
Assay [6] addresses CR8071 lambda light chain L1 with S176E_Y178E. The assay is described as above.
Assay [7] deals with CR8071 lambda light chain E124Q_T131R (L1 of design 3025, system C). Description: SMCA LC-MS.
Assay [8] addresses CR8071 lambda light chain K129T_S180E (L1 of design 3878, system C). Description: SMCA LC-MS.
The target of assay [9] is CR8071 lambda light chain V133D_Y178T (L1 of designs 3113 and 3122, system C). Description: SMCA LC-MS.
Assay [10] shares this target. Description: SMCA LC-MS. The source holds these as a separate data set.
Assay [11] addresses Pertuzumab kappa light chain P44F_V133G_S176D_T180E. Description: LCCA, SPR tag read-out.
For assay [12], the target named is CAT-2200 lambda light chain E124Q_T131R. Kind of assay: LCCA, SPR tag read-out.
The target of assay [13] is Pertuzumab kappa light chain P44F_V133G_S176D_T180E. Description: LCCA, SPR tag read-out. This is another data set of the same source.
Assay [14] deals with Pertuzumab kappa light chain P44F_Q124R_T178R. Kind of assay: LCCA, SPR tag read-out.
In assay [15] the target is Pertuzumab kappa light chain V133G_S176D_T180E (L2), N-terminal HA tag. Kind of assay: LCCA, SPR of light chain tags.
Assay [16] shares this target. Description: LCCA, SPR of light chain tags. This is another data set of the same source.
Assay [17] has the same target. Kind of assay: LCCA, SPR of light chain tags. The source holds these as a separate data set.
Assay [18] shares this target. Kind of assay: LCCA, SPR of light chain tags. This is another data set of the same source.
Assay [19] has as its target CAT-2200 lambda light chain S176K_Y178L (L1), N-terminal FLAG tag. Kind of assay: LCCA, SPR of light chain tags.
Assay [20] concerns the target CAT-2200 lambda light chain S176K_Y178R (L1), N-terminal FLAG tag. Kind of assay: LCCA, SPR of light chain tags.
Assay [21] addresses CAT-2200 lambda light chain S176K_Y178K (L1), N-terminal FLAG tag. Kind of assay: LCCA, SPR of light chain tags.
Assay [22] addresses SGN-CD19a kappa light chain L2 with S131R_V133G_S176R. Description: SMCA System C: four chains co-expressed, protein A, LC-MS.
For assay [23] the target is unchanged. Kind of assay: SMCA System B: four chains co-expressed, protein A, LC-MS.
In assay [24] the target is SGN-CD19a kappa light chain L2 with V133G_S176D. Kind of assay: SMCA System C: four chains co-expressed, protein A, LC-MS.
Assay [25] has the same target. Kind of assay: SMCA System B: four chains co-expressed, protein A, LC-MS.
The target of assay [26] is SGN-CD19a kappa light chain L2 with V133G_S176D_T178E. Kind of assay: SMCA System C: four chains co-expressed, protein A, LC-MS.
Assay [27] shares this target. Description: SMCA System B: four chains co-expressed, protein A, LC-MS.
Assay [28] deals with SGN-CD19a kappa light chain L2 with V133G_S176D_T180E. Kind of assay: SMCA System C: four chains co-expressed, protein A, LC-MS.
Assay [29] shares this target. Description: SMCA System B: four chains co-expressed, protein A, LC-MS.
Assay [30] concerns the target SGN-CD19a kappa light chain L2 with Q124E_V133D. Kind of assay: SMCA System C: four chains co-expressed, protein A, LC-MS.
Assay [31] shares this target. Description: SMCA System B: four chains co-expressed, protein A, LC-MS.
In assay [32] the target is SGN-CD19a kappa light chain S176K_T178K (L2 of design 3122, systems B and C). Kind of assay: SMCA LC-MS.
The target is the same in assay [33]. Description: SMCA LC-MS. The source holds these as a separate data set.
Assay [34] addresses SGN-CD19a kappa light chain S131R_V133G_S176R (L2 of designs 3102 and 3113, systems B and C). Kind of assay: SMCA LC-MS.
The target is the same in assay [35]. Kind of assay: SMCA LC-MS. The source holds these as a separate data set.
The target is the same in assay [36]. Description: SMCA LC-MS. The source holds these as a separate data set.
Assay [37] has the same target. Kind of assay: SMCA LC-MS. This is another data set of the same source.
Assay [38] addresses SGN-CD19a kappa light chain S131D_V133G_T178F (L2 of design 3025, systems B and C). Description: SMCA LC-MS.
For assay [39] the target is unchanged. Description: SMCA LC-MS. This is another data set of the same source.

Experimental findings from patent US20190338048A1 are described below.

Like-named read-outs stand apart in the source and are kept apart here.

Sequence of Recombinant human IL-17A (human) (Q16552 20-155 limits assumed): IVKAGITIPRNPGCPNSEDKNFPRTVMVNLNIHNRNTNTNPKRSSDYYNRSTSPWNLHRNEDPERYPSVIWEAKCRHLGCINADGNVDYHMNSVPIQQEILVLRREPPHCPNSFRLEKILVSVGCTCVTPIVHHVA

As for CAT-2200 Fab, H1 Q179K / L1 K129T_S180E, the Change in KD of H1L1 Fab vs wild type (log(KD) units) in assay [1] is -0.056. In addition, in [2], the Kd was determined as 0.24 nM.

Regarding CAT-2200 Fab, H1 S186R / L1 K129T_S180E, the Change in KD of H1L1 Fab vs wild type (log(KD) units) in assay [1] was -0.088. Also, the Kd in assay [2] worked out at 0.26 nM.

The substance “CAT-2200 lambda light chain K129T_S176E_Y178E” gave an H1L1:H1L2 median scalar value (ln(H1L1:H1L2)) in assay [3] of 1.8.

In turn, CAT-2200 lambda light chain S176E_Y178E returned an H1L1:H1L2 median scalar value (ln(H1L1:H1L2)) in assay [3] of 1.01.

With “CR8071 heavy chain H1 with K145T_V177D_S188D”, the % H1L1 Pairing in [4] is 41.5%; in assay [5] it was 62.6%. Moreover, the values for the Change in % H1L1 Pairing with respect to wild type in assay [4] and in assay [5] were -6.9% and 14.2%, respectively.

CR8071 heavy chain H1 with S188K: in assay [6], the % H1L1 Pairing was determined as 94.5% and the Change in % H1L1 Pairing with respect to wild type was 12.2%.

“CR8071 heavy chain L143D_K145T (H1 of design 3025, system C)”: in assay [7], the % H1L1 Pairing was determined as 43.9% and the Change in % H1L1 Pairing with respect to wild type was -4.5%.

On to “CR8071 heavy chain Q179K (H1 of design 3878, system C)”, for which, in assay [8], the % H1L1 Pairing worked out at 99.3% and the Change in % H1L1 Pairing with respect to wild type stood at 17%.

Turning to “CR8071 heavy chain S186K_S188T (H1 of designs 3113 and 3122, system C)”, in [9], the % H1L1 Pairing turned out to be 76.7% and the Change in % H1L1 Pairing with respect to wild type is -5.6%. Moreover, in assay [10], the % H1L1 Pairing was found to be 65.8% and the Change in % H1L1 Pairing with respect to wild type was -16.5%.

On to “Pertuzumab Fab heavy chain L45P_L124R_Q179K”, for which the H2L2:H2L1 median scalar value in assay [11] was 1.45 ln(ratio); in assay [13], 1.84 ln(ratio). Moreover, the H2L2:H2L1 normalized median ratio worked out at 81% in assay [11], 14% in assay [12] and 86% in [13].

For the substance “Pertuzumab Fab heavy chain L45P_L143E_K145T_Q179E”, in assay [14], the H2L2:H2L1 median scalar value was 3.81 ln(ratio) and the H2L2:H2L1 normalized median ratio was 98%.

Take “Pertuzumab Fab heavy chain L124R_Q179K (H2), ABD2-His6 tagged”: the H2L2:H2L1 normalized median scalar value ln(r1/f1) worked out at 0.79 in assay [15], 0.75 in assay [16], 0.67 in assay [17] and 0.63 in assay [18]. Further, the H2L2:H2L1 normalized median ratio was 34% in assay [19] and 31% in assay [20].

On to “Pertuzumab Fab heavy chain L124R_S186R (H2), ABD2-His6 tagged”, for which the H2L2:H2L1 normalized median scalar value ln(r1/f1) in [15] stood at 1.17; in [16] it was 1.06; in assay [17] it was 0.98; in assay [18] it was 1.21. For the same substance, the values for the H2L2:H2L1 normalized median ratio in assay [19] and in assay [21] were 27% and 26%, respectively.

On to “SGN-CD19a heavy chain H2 with L124E_K145T_Q179E”, for which, in assay [22], the % H2L2 Pairing was 99.5% and the Change in % H2L2 Pairing with respect to wild type is 39.6%. In assay [23], this substance registered a % H2L2 Pairing of 77.3% and a Change in % H2L2 Pairing with respect to wild type of 39.7%.

Regarding SGN-CD19a heavy chain H2 with L124R, in assay [24], the % H2L2 Pairing worked out at 99.5% and the Change in % H2L2 Pairing with respect to wild type worked out at 19.9%. For the same substance, in assay [25], the % H2L2 Pairing came to 94.6% and the Change in % H2L2 Pairing with respect to wild type was 40.4%.

Consider “SGN-CD19a heavy chain H2 with L124R_S186K”, for which, in assay [26], the % H2L2 Pairing amounted to 99.6% and the Change in % H2L2 Pairing with respect to wild type stood at 20%. In assay [27], this substance registered a % H2L2 Pairing of 98.8% and a Change in % H2L2 Pairing with respect to wild type of 44.6%.

In [28], “SGN-CD19a heavy chain H2 with L124R_S186R” displayed a % H2L2 Pairing of 99.5% and a Change in % H2L2 Pairing with respect to wild type of 28.2%. In assay [29], the % H2L2 Pairing came out at 98.6% and the Change in % H2L2 Pairing with respect to wild type came out at 44.4%.

In [30], SGN-CD19a heavy chain H2 with L143K returned a % H2L2 Pairing of 99.6% and a Change in % H2L2 Pairing with respect to wild type of 20%. In assay [31], this substance returned a % H2L2 Pairing of 94.3% and a Change in % H2L2 Pairing with respect to wild type of 40.1%.

For the substance “SGN-CD19a heavy chain K145T_V177D_S188D (H2 of design 3122, systems B and C)”, in [32], the % H2L2 Pairing was determined as 89.7% and the Change in % H2L2 Pairing with respect to wild type was 52.1%. Moreover, in assay [33], the % H2L2 Pairing was 99.8% and the Change in % H2L2 Pairing with respect to wild type was 39.9%.

For “SGN-CD19a heavy chain L124E_K145T_Q179E (H2 of designs 3102 and 3113, systems B and C)”, the % H2L2 Pairing in assay [34] was 99.8%; in [35] it was 92.8%; in assay [36], 90.9%; in assay [37], 99.6%. Besides, the Change in % H2L2 Pairing with respect to wild type in assay [34] was found to be 39.9%; in assay [35], 55.2%; in [36], 53.3%; in assay [37], 39.7%.

Regarding “SGN-CD19a heavy chain S188K (H2 of design 3025, systems B and C)”, the % H2L2 Pairing in [38] came to 87.9%; in assay [39] it was 99.7%. Further, the Change in % H2L2 Pairing with respect to wild type in [38] turned out to be 33.7%; in assay [39], 20.1%.
